In patent US10894036B2, “Use of marizomib for the treatment of central nervous system (CNS) cancers” (Celgene International II Sàrl, priority 2016, dated 2021):

Test: Phase 1/2 MRZ + BEV and MRZ monotherapy in recurrent G4 MG: adverse events, DLT
Conditions: MRZ+BEV

## bevacizumab [reference compound]
12 Sep. 2016
  Ear Infection: # pts, related to BEV: 0
  Epistaxis: # pts, related to BEV: 7
  Falls: # pts, related to BEV: 0
  Fatigue: # pts, related to BEV: 0
  Fracture of Femur: # pts, related to BEV: 0
  Hallucination: # pts, related to BEV: 0
  Headache: # pts, related to BEV: 1
  Hemiparesis: # pts, related to BEV: 0
  Hyperglycemia: # pts, related to BEV: 0
  Hypertension: # pts, related to BEV: 13
  Hypokalemia: # pts, related to BEV: 0
  Hyponatremia: # pts, related to BEV: 0
  Hypotension: # pts, related to BEV: 0
  Infusion Site Pain: # pts, related to BEV: 0
  Insomnia: # pts, related to BEV: 1
  Lymphocyte Count Decreased: # pts, related to BEV: 0
  Muscular Weakness: # pts, related to BEV: 0
  Nausea: # pts, related to BEV: 0
  Optic Nerve Disorder: # pts, related to BEV: 1
  Pyramidal Tract Syndrome: # pts, related to BEV: 0
  Tumor Metastasis: # pts, related to BEV: 0
  Vision Blurred: # pts, related to BEV: 0
  Vomiting: # pts, related to BEV: 0
17 May 2016
  Anaemia: # events related to BEV: 0
  Aphasia: # events related to BEV: 0
  Appendicitis Perforated: # events related to BEV: 0
  Asthenia: # events related to BEV: 0
  Ataxia: # events related to BEV: 0
  Confusional State: # events related to BEV: 0
  Constipation: # events related to BEV: 0
  Convulsion: # events related to BEV: 0
  Delusion: # events related to BEV: 0
  Diarrhoea: # events related to BEV: 0
  Dizziness: # events related to BEV: 0
  Dysarthria: # events related to BEV: 0
  Dysphagia: # events related to BEV: 0
  Dysphonia: # events related to BEV: 10
  Dyspnoea: # events related to BEV: 0
  Ear Infection: # events related to BEV: 0
  Embolism: # events related to BEV: 1
  Epistaxis: # events related to BEV: 8
  Fatigue: # events related to BEV: 0
  Hallucination: # events related to BEV: 0
  Hemiparesis: # events related to BEV: 0
  Hyperglycemia: # events related to BEV: 0
  Hypokalemia: # events related to BEV: 0
  Hypotension: # events related to BEV: 0
  Insomnia: # events related to BEV: 0
  Lymphocyte Count Decreased: # events related to BEV: 0
  Muscular Weakness: # events related to BEV: 0
  Nausea: # events related to BEV: 0
  Pyramidal Tract Syndrome: # events related to BEV: 0
  Vomiting: # events related to BEV: 0
36 pts, as of 12 Sep. 2016
  Anaemia: # patients, AE related to labelled agent (BEV, MRZ, Both): 0
  Anxiety: # patients, AE related to labelled agent (BEV, MRZ, Both): 0
  Aphasia: # patients, AE related to labelled agent (BEV, MRZ, Both): 0
  Appendicitis Perforated: # patients, AE related to labelled agent (BEV, MRZ, Both): 0
  Asthenia: # patients, AE related to labelled agent (BEV, MRZ, Both): 0
  Ataxia: # patients, AE related to labelled agent (BEV, MRZ, Both): 0
  Confusional State: # patients, AE related to labelled agent (BEV, MRZ, Both): 0
  Constipation: # patients, AE related to labelled agent (BEV, MRZ, Both): 0
  Convulsion: # patients, AE related to labelled agent (BEV, MRZ, Both): 0
  Delusion: # patients, AE related to labelled agent (BEV, MRZ, Both): 0
  Depressed Level of Consciousness: # patients, AE related to labelled agent (BEV, MRZ, Both): 0
  Diarrhoea: # patients, AE related to labelled agent (BEV, MRZ, Both): 0
  Dizziness: # patients, AE related to labelled agent (BEV, MRZ, Both): 0
  Dysarthria: # patients, AE related to labelled agent (BEV, MRZ, Both): 0
  Dysphagia: # patients, AE related to labelled agent (BEV, MRZ, Both): 0
  Dysphonia: # patients, AE related to labelled agent (BEV, MRZ, Both): 10
  Dyspnoea: # patients, AE related to labelled agent (BEV, MRZ, Both): 0
  Ear Infection: # patients, AE related to labelled agent (BEV, MRZ, Both): 0
  Epistaxis: # patients, AE related to labelled agent (BEV, MRZ, Both): 7
  Falls: # patients, AE related to labelled agent (BEV, MRZ, Both): 0
  Fatigue: # patients, AE related to labelled agent (BEV, MRZ, Both): 0
  Fracture of Femur: # patients, AE related to labelled agent (BEV, MRZ, Both): 0
  Hallucination: # patients, AE related to labelled agent (BEV, MRZ, Both): 0
  Headache: # patients, AE related to labelled agent (BEV, MRZ, Both): 1
  Hemiparesis: # patients, AE related to labelled agent (BEV, MRZ, Both): 0
  Hyperglycemia: # patients, AE related to labelled agent (BEV, MRZ, Both): 0
  Hypertension: # patients, AE related to labelled agent (BEV, MRZ, Both): 13
  Hypokalemia: # patients, AE related to labelled agent (BEV, MRZ, Both): 0
  Hyponatremia: # patients, AE related to labelled agent (BEV, MRZ, Both): 0
  Hypotension: # patients, AE related to labelled agent (BEV, MRZ, Both): 0
  Infusion Site Pain: # patients, AE related to labelled agent (BEV, MRZ, Both): 0
  Insomnia: # patients, AE related to labelled agent (BEV, MRZ, Both): 1
  Lymphocyte Count Decreased: # patients, AE related to labelled agent (BEV, MRZ, Both): 0
  Muscular Weakness: # patients, AE related to labelled agent (BEV, MRZ, Both): 0
  Nausea: # patients, AE related to labelled agent (BEV, MRZ, Both): 0
  Optic Nerve Disorder: # patients, AE related to labelled agent (BEV, MRZ, Both): 1
  Pyramidal Tract Syndrome: # patients, AE related to labelled agent (BEV, MRZ, Both): 0
  Tumor Metastasis: # patients, AE related to labelled agent (BEV, MRZ, Both): 0
  Vision Blurred: # patients, AE related to labelled agent (BEV, MRZ, Both): 0
  Vomiting: # patients, AE related to labelled agent (BEV, MRZ, Both): 0
